Measured values as given in patent US20190153103A1.
Residue numbers refer to the chain shown, from its start. One block for each binder: values may come before it.

Molecular target: recombinant human BMPR-1A/ALK-3-Fc Chimera (R&D systems Catalog: 315-BR) (human) (UniProt P36894)
Assay: ELISA

Sequence of recombinant human BMPR-1A/ALK-3-Fc Chimera (R&D systems Catalog: 315-BR) (human) (P36894 24-152 limits assumed, change not shown): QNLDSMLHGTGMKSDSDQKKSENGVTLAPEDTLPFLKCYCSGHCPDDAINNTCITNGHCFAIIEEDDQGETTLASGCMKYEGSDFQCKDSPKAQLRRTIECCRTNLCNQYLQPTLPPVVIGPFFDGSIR

ELISA: 0.077
B1: SC91.111 (antibody, V domains shown)
VH: QIQLVQSGPELKKPGETVKISCKASGYTLTTYGMNWVKQAPGKGLKWMGWINTYSGVPAYADDFKGRFAFSLETSASTAYLQINNFKNEDTATYFCARSELRNWYFDVWGTGTTVTVSS
VL: SFVMTQTPKFLLVSAGDRVTITCKASQNMGHNVAWYQQKPGQSPKLLIYYASNRYTGVPDRFTGSGYGTDFTFTISTVQAEDLAVYFCQQDYSSPFTFGSGTKLEIK

ELISA: 0.059
B2: SC91.155 (antibody, V domains shown)
VH: B1 VH with L29F, T53S, S75F, F86L, K87R, N88D
VL: B1 VL with M29L, H31N, N32D, K45R, Y50F

ELISA: 0.061
B3: SC91.160 (antibody, V domains shown)
VH: B1 VH with L29F, A59S, Y60S, Q82L, F86L
VL: B1 VL with N32D, Y50S, I106M

ELISA: 0.066
B4: SC91.149 (antibody, V domains shown)
VH: QVQLLQPGAELVKPGSSVKVSCKASGYTFTNYWMQWVKQRPGQGLEWIGEIDPSDTYTLYNQKFKGKATLTVDTSSSTAYMQLSSLTSEDSAVYYCARFGYYVDYWGQGTTLTVSS
VL: DVVMTQTPLSLPVSLGDQASISCRSSQSLVHSTGNTYFHWYLQKPGQSPELLIYKVSNRFSGVPDRFRGSGSGTDFTLKISRVEAEDLGVYFCSQSTHVPFTFGSGTKLEIK

ELISA: 0.092
B5: SC91.187 (antibody, V domains shown)
VH: B4 VH with L5Q, A9P, L11F, S16A, V20L, N31S, M34V, T56N, K63N, Y101F
VL: B4 VL with D17E, F38L, E50K, R68S

ELISA: 0.062
B6: SC91.172 (antibody, V domains shown)
VH: B4 VH with L5Q, E10D, S16T, V20L, N31S, L59M
VL: B4 VL with F38L, P45A, E50K, R68S
